In patent publication US20180155451A1 (published 2018) one finds He/Con_1a and He/Con_2b data, which are given here for nine molecules.

The target in assay [1] is T1, FcγRIa extracellular domain with C-terminal His tag (human, UniProt P12314 16-292).
T1 construct: extracellular domain; Expressed in FreeStyle293 cells; analyte in the Biacore assay; also called FcgRI; 1a; not shown: His tag at the C terminus
Nature of the assay: SPR (Biacore), antibody captured on antigen-peptide chip, FcγR as analyte; relative binding.
T1 sequence (P12314 16-292): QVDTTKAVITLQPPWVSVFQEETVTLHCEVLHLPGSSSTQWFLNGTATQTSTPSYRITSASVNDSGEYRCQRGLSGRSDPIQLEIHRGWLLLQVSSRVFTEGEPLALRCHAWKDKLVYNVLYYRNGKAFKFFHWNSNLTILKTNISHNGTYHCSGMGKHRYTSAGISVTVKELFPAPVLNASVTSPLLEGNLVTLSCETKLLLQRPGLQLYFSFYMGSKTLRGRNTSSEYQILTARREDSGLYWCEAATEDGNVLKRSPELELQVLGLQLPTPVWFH

Assay [2] deals with T2, FcγRIIb extracellular domain with C-terminal His tag (human, UniProt P31994 43-217).
T2 construct: extracellular domain; Expressed in FreeStyle293 cells; analyte in the Biacore assay; also called FcgRIIb; 2b; not shown: His tag at the C terminus
T2 sequence (looked up): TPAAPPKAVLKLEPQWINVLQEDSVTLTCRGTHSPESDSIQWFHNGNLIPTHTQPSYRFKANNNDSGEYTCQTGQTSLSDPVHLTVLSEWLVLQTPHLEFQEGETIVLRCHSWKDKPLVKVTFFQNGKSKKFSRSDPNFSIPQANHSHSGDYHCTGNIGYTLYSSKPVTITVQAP
The description is as above.

In assay [3] the target is T3, FcγRIa extracellular domain with C-terminal His tag (human, UniProt P12314 16-292).
T3 construct: extracellular domain; Soluble receptor expressed in FreeStyle293 cells and used as analyte in Biacore; also called FcgRI; 1a; not shown: His tag at the C terminus
Nature of the assay: SPR Biacore, relative binding amount.
T3 sequence (P12314 16-292): as the sequence (P12314 16-292) above

In assay [4] the target is T4, FcγRIIb extracellular domain with C-terminal His tag (human, UniProt P31994 43-217).
T4 construct: extracellular domain; Soluble receptor expressed in FreeStyle293 cells and used as analyte in Biacore; also called FcgRIIb; 2b; not shown: His tag at the C terminus
T4 sequence (looked up): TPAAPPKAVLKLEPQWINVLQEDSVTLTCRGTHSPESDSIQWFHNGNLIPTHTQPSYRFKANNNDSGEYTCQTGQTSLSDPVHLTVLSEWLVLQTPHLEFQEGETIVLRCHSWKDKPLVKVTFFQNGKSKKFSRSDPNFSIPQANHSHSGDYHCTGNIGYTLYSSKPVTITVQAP
Put plainly: SPR Biacore, relative binding amount.

B1: GpH7-A5/GpH7-B3 variant Y300_09D/GpL16-k0 (He Ab) (antibody, human IgG1, kappa)
heavy 1: not shown
heavy 2: not shown
light: DIVMTQSPLSLPVTPGEPASISCQASESLVHSNRNTYLHWYLQKPGQSPQLLIYKVSNRFSGVPDRFSGSGSGTDFTLKISRVEAEDVGVYYCSQNTHVPPTFGQGTKVEIERTVAAPSVFIFPPSDEQLKSGTASVVCLLNNFYPREAKVQWKVDNALQSGNSQESVTEQDSKDSTYSLSSTLTLSKADYEKHKVYACEVTHQGLSSPVTKSFNRGEC
notes: Heterodimerized anti-glypican-3 IgG1; the mutation stands in the GpH7-B3 chain only
For B1, in assay [1], the He/Con_1a was 112 % of GpH7-A5/GpH7-B3/GpL16-k0 (=100). Besides, the He/Con_2b in assay [2] is 93.2 % of GpH7-A5/GpH7-B3/GpL16-k0 (=100).

B2: GpH7-A5/GpH7-B3 variant Y300_11K/GpL16-k0 (He Ab) (antibody, human IgG1, kappa)
heavy 1: not shown
heavy 2: not shown
light: DIVMTQSPLSLPVTPGEPASISCQASESLVHSNRNTYLHWYLQKPGQSPQLLIYKVSNRFSGVPDRFSGSGSGTDFTLKISRVEAEDVGVYYCSQNTHVPPTFGQGTKVEIERTVAAPSVFIFPPSDEQLKSGTASVVCLLNNFYPREAKVQWKVDNALQSGNSQESVTEQDSKDSTYSLSSTLTLSKADYEKHKVYACEVTHQGLSSPVTKSFNRGEC
notes: as for B1
As to B2, in assay [1], the He/Con_1a was 107 % of GpH7-A5/GpH7-B3/GpL16-k0 (=100). Further, the He/Con_2b in assay [2] is 51.6 % of GpH7-A5/GpH7-B3/GpL16-k0 (=100).

B3: GpH7-A5/GpH7-B3 variant Y300_08L/GpL16-k0 (He Ab) (antibody, human IgG1, kappa)
heavy 1: not shown
heavy 2: not shown
light: DIVMTQSPLSLPVTPGEPASISCQASESLVHSNRNTYLHWYLQKPGQSPQLLIYKVSNRFSGVPDRFSGSGSGTDFTLKISRVEAEDVGVYYCSQNTHVPPTFGQGTKVEIERTVAAPSVFIFPPSDEQLKSGTASVVCLLNNFYPREAKVQWKVDNALQSGNSQESVTEQDSKDSTYSLSSTLTLSKADYEKHKVYACEVTHQGLSSPVTKSFNRGEC
notes: as for B1
In the case of B3, the He/Con_1a in assay [1] was 113 % of GpH7-A5/GpH7-B3/GpL16-k0 (=100). The He/Con_2b in assay [2] was 73.6 % of GpH7-A5/GpH7-B3/GpL16-k0 (=100).

B4: heterodimerized antibody GpH7-A5/GpH7-B3 variant E333_11K/GpL16-k0 (antibody, human IgG1, kappa)
heavy 1: not shown
heavy 2: not shown
light: DIVMTQSPLSLPVTPGEPASISCQASESLVHSNRNTYLHWYLQKPGQSPQLLIYKVSNRFSGVPDRFSGSGSGTDFTLKISRVEAEDVGVYYCSQNTHVPPTFGQGTKVEIERTVAAPSVFIFPPSDEQLKSGTASVVCLLNNFYPREAKVQWKVDNALQSGNSQESVTEQDSKDSTYSLSSTLTLSKADYEKHKVYACEVTHQGLSSPVTKSFNRGEC
notes: Substitution in only one H chain (GpH7-B3 side); also called He Ab
Turning to B4, the He/Con_1a in assay [3] is 102 % of GpH7-A5/GpH7-B3/GpL16-k0 (=100). Further, the He/Con_2b in assay [4] is 80.6 % of GpH7-A5/GpH7-B3/GpL16-k0 (=100).

B5: heterodimerized antibody GpH7-A5/GpH7-B3 variant E333_14T/GpL16-k0 (antibody, human IgG1, kappa)
heavy 1: not shown
heavy 2: not shown
light: DIVMTQSPLSLPVTPGEPASISCQASESLVHSNRNTYLHWYLQKPGQSPQLLIYKVSNRFSGVPDRFSGSGSGTDFTLKISRVEAEDVGVYYCSQNTHVPPTFGQGTKVEIERTVAAPSVFIFPPSDEQLKSGTASVVCLLNNFYPREAKVQWKVDNALQSGNSQESVTEQDSKDSTYSLSSTLTLSKADYEKHKVYACEVTHQGLSSPVTKSFNRGEC
notes: as for B4
As to B5, the He/Con_1a in assay [3] is 102 % of GpH7-A5/GpH7-B3/GpL16-k0 (=100). Further, the He/Con_2b in assay [4] was 86.1 % of GpH7-A5/GpH7-B3/GpL16-k0 (=100).

B6: GpH7-A5/GpH7-B3 variant Y300_14T/GpL16-k0 (He Ab) (antibody, human IgG1, kappa)
heavy 1: not shown
heavy 2: not shown
light: DIVMTQSPLSLPVTPGEPASISCQASESLVHSNRNTYLHWYLQKPGQSPQLLIYKVSNRFSGVPDRFSGSGSGTDFTLKISRVEAEDVGVYYCSQNTHVPPTFGQGTKVEIERTVAAPSVFIFPPSDEQLKSGTASVVCLLNNFYPREAKVQWKVDNALQSGNSQESVTEQDSKDSTYSLSSTLTLSKADYEKHKVYACEVTHQGLSSPVTKSFNRGEC
notes: as for B1
On to B6, for which the He/Con_1a in assay [1] was 112 % of GpH7-A5/GpH7-B3/GpL16-k0 (=100). The He/Con_2b in assay [2] is 55.6 % of GpH7-A5/GpH7-B3/GpL16-k0 (=100).

B7: GpH7-A5/GpH7-B3 variant Y300_12R/GpL16-k0 (He Ab) (antibody, human IgG1, kappa)
heavy 1: not shown
heavy 2: not shown
light: DIVMTQSPLSLPVTPGEPASISCQASESLVHSNRNTYLHWYLQKPGQSPQLLIYKVSNRFSGVPDRFSGSGSGTDFTLKISRVEAEDVGVYYCSQNTHVPPTFGQGTKVEIERTVAAPSVFIFPPSDEQLKSGTASVVCLLNNFYPREAKVQWKVDNALQSGNSQESVTEQDSKDSTYSLSSTLTLSKADYEKHKVYACEVTHQGLSSPVTKSFNRGEC
notes: as for B1
With B7, the He/Con_1a in assay [1] is 105 % of GpH7-A5/GpH7-B3/GpL16-k0 (=100). Besides, in assay [2], the He/Con_2b is 41.2 % of GpH7-A5/GpH7-B3/GpL16-k0 (=100).

B8: heterodimerized antibody GpH7-A5/GpH7-B3 variant E333_13S/GpL16-k0 (antibody, human IgG1, kappa)
heavy 1: not shown
heavy 2: not shown
light: DIVMTQSPLSLPVTPGEPASISCQASESLVHSNRNTYLHWYLQKPGQSPQLLIYKVSNRFSGVPDRFSGSGSGTDFTLKISRVEAEDVGVYYCSQNTHVPPTFGQGTKVEIERTVAAPSVFIFPPSDEQLKSGTASVVCLLNNFYPREAKVQWKVDNALQSGNSQESVTEQDSKDSTYSLSSTLTLSKADYEKHKVYACEVTHQGLSSPVTKSFNRGEC
notes: as for B4
For the molecule B8, the He/Con_1a in assay [3] was 103 % of GpH7-A5/GpH7-B3/GpL16-k0 (=100). The He/Con_2b in assay [4] is 81.8 % of GpH7-A5/GpH7-B3/GpL16-k0 (=100).

B9: GpH7-A5/GpH7-B3 variant Y300_20W/GpL16-k0 (He Ab) (antibody, human IgG1, kappa)
heavy 1: not shown
heavy 2: not shown
light: DIVMTQSPLSLPVTPGEPASISCQASESLVHSNRNTYLHWYLQKPGQSPQLLIYKVSNRFSGVPDRFSGSGSGTDFTLKISRVEAEDVGVYYCSQNTHVPPTFGQGTKVEIERTVAAPSVFIFPPSDEQLKSGTASVVCLLNNFYPREAKVQWKVDNALQSGNSQESVTEQDSKDSTYSLSSTLTLSKADYEKHKVYACEVTHQGLSSPVTKSFNRGEC
notes: as for B1
For the molecule B9, the He/Con_1a in assay [1] is 112 % of GpH7-A5/GpH7-B3/GpL16-k0 (=100). Besides, in assay [2], the He/Con_2b was 84.1 % of GpH7-A5/GpH7-B3/GpL16-k0 (=100).
